We go through three molecules from publication PMC7802366 (The Journal of Cell Biology, 2021).

The target in test [1] is p150^GLUED subunit of dynactin, endogenous (human (endogenous in HEK-293), UniProt Q14203-1 1-1278). Nature of the test: pull-down.
Test [2] has as its target dynein heavy chain (DHC), native (human (endogenous in HEK-293), UniProt Q14204 1-4646). Nature of the test: pull-down.

p150^GLUED subunit of dynactin, endogenous, sequence (Q14203 whole entry): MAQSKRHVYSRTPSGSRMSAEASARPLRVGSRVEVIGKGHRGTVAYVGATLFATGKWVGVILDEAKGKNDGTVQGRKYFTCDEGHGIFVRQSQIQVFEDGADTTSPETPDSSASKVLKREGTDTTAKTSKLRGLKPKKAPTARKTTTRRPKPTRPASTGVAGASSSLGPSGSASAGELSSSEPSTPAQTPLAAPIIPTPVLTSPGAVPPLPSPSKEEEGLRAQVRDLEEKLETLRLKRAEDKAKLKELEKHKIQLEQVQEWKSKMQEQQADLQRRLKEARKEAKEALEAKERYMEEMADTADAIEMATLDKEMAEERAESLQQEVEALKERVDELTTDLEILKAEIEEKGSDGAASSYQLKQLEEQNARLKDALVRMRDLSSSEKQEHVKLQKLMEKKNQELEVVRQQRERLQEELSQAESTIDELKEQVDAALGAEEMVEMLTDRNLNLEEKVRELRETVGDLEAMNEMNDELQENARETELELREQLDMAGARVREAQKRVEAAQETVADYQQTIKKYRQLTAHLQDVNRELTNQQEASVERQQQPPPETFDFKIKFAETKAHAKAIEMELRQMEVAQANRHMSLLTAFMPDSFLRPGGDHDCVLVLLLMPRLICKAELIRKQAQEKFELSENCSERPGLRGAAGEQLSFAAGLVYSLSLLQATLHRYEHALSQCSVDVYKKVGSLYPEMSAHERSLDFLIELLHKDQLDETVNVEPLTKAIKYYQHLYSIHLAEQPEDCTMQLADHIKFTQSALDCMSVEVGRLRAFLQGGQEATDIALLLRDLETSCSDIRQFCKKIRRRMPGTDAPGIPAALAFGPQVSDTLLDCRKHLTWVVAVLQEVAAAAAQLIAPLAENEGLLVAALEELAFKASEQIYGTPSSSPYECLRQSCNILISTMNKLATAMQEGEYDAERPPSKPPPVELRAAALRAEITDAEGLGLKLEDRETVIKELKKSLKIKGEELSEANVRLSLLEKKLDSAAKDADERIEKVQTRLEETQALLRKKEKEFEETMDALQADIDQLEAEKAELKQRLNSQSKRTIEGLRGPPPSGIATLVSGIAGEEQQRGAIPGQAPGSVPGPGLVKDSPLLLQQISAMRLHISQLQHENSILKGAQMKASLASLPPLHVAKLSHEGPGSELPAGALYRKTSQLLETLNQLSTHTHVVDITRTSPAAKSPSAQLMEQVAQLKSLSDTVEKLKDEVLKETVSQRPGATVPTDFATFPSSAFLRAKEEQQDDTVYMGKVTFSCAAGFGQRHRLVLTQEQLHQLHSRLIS

B1: His-SEPT9 NTE domain (aa 1–283) (domain or fragment, human, UniProt Q9UHD8-1 1-283, looked up)
chain: MKKSYSGGTRTSSGRLRRLGDSSGPALKRSFEVEEVETPNSTPPRRVQTPLLRATVASSTQKFQDLGVKNSEPSARHVDSLSQRSPKASLRRVELSGPKAAEPVSRRTELSIDISSKQVENAGAIGPSRFGLKRAEVLGHKTPEPAPRRTEITIVKPQESAHRRMEPPASKVPEVPTAPATDAAPKRVEIQMPKPAEAPTAPSPAQTLENSEPAPVSQLQSRLEPKPQPPVAEATPRSQEATEAAPSCVGDMADTPRDAGLKQAPASRNEKAPVDFGYVGIDS
Turning to B1, the binding result in test [1] is “binds”.

B2: His-SEPT9 G domain (aa 283–586) (domain or fragment, human, UniProt Q9UHD8-1 283-586, looked up)
chain: SILEQMRRKAMKQGFEFNIMVVGQSGLGKSTLINTLFKSKISRKSVQPTSEERIPKTIEIKSITHDIEEKGVRMKLTVIDTPGFGDHINNENCWQPIMKFINDQYEKYLQEEVNINRKKRIPDTRVHCCLYFIPATGHSLRPLDIEFMKRLSKVVNIVPVIAKADTLTLEERVHFKQRITADLLSNGIDVYPQKEFDEDSEDRLVNEKFREMIPFAVVGSDHEYQVNGKRILGRKTKWGTIEVENTTHCEFAYLRDLLIRTHMQNIKDITSSIHFEAYRVKRLNEGSSAMANGMEEKEPEAPEM
On to B2, for which the binding result in test [1] and in test [2] was “binds” each time.

B3: His-SEPT9 (recombinant full-length SEPT9 isoform 1) (natural protein, human, UniProt Q9UHD8-1 1-586, looked up)
chain: MKKSYSGGTRTSSGRLRRLGDSSGPALKRSFEVEEVETPNSTPPRRVQTPLLRATVASSTQKFQDLGVKNSEPSARHVDSLSQRSPKASLRRVELSGPKAAEPVSRRTELSIDISSKQVENAGAIGPSRFGLKRAEVLGHKTPEPAPRRTEITIVKPQESAHRRMEPPASKVPEVPTAPATDAAPKRVEIQMPKPAEAPTAPSPAQTLENSEPAPVSQLQSRLEPKPQPPVAEATPRSQEATEAAPSCVGDMADTPRDAGLKQAPASRNEKAPVDFGYVGIDSILEQMRRKAMKQGFEFNIMVVGQSGLGKSTLINTLFKSKISRKSVQPTSEERIPKTIEIKSITHDIEEKGVRMKLTVIDTPGFGDHINNENCWQPIMKFINDQYEKYLQEEVNINRKKRIPDTRVHCCLYFIPATGHSLRPLDIEFMKRLSKVVNIVPVIAKADTLTLEERVHFKQRITADLLSNGIDVYPQKEFDEDSEDRLVNEKFREMIPFAVVGSDHEYQVNGKRILGRKTKWGTIEVENTTHCEFAYLRDLLIRTHMQNIKDITSSIHFEAYRVKRLNEGSSAMANGMEEKEPEAPEM
As to B3, the binding result in test [1] and in test [2] was “binds” each time.
